The values that follow come from publication PMC6889415, “Global redox proteome and phosphoproteome analysis reveals redox switch in Akt” (Nature Communications, 2019).

Data set [1] deals with the molecule itself. Nature of the data set: non-reducing SDS-PAGE with immunoblot; adipocytes treated with BCNU or BCNU/AF for 2 or 24 h; washed and scraped in PBS with 100 mM NEM, 1% SDS; non-reducing SDS-PAGE, immunoblot; dimer/monomer ratio measured. A general note: Immunoblotting shows a protein as a band on a membrane.
Data set [2] addresses T1, peroxiredoxin 2 (mouse (endogenous in 3T3-L1 adipocytes)), Q61171.
T1 chain: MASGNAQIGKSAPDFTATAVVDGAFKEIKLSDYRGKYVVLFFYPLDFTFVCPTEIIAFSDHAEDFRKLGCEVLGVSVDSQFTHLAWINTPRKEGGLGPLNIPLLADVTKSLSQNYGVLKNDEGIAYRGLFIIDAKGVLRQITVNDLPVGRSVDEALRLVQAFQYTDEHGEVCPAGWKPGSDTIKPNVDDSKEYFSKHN
Described as above. Particulars: remark: other sources report otherwise.

B1: peroxiredoxin 3 (natural protein, mouse (endogenous in 3T3-L1 adipocytes), UniProt P20108 63-257, looked up)
chain: TPAVTQHAPYFKGTAVVNGEFKELSLDDFKGKYLVLFFYPLDFTFVCPTEIVAFSDKANEFHDVNCEVVAVSVDSHFSHLAWINTPRKNGGLGHMNITLLSDITKQISRDYGVLLESAGIALRGLFIIDPNGVVKHLSVNDLPVGRSVEETLRLVKAFQFVETHGEVCPANWTPESPTIKPSPTASKEYFEKVHQ
notes: peroxiredoxin 3 (Prdx3), mitochondrial, endogenous in 3T3-L1 adipocytes, detected with anti-PRDX3; The dimer seen on the non-reducing gel is held by a disulfide bond formed on oxidation; also called Prdx3; PRDX3; source: endogenous, 3T3-L1 adipocyte lysate
For B1, the stoichiometry N (commonly the number of molecules, sites or subunits per partner or assembly) in data set [1] came out at 2.

B2: peroxiredoxin 2, Q61171 1-198 (natural protein)
chain: T1 chain
With B2, the stoichiometry N in data set [2] amounted to 2.
